The results in this text go back to patent US20120045438A1 (Janssen / Centocor, published 2012).

Substitutions are numbered along the chain they refer to.

For experiment [1], the target named is T1, human IL-13 R130Q variant (R110Q of the mature chain) (human, UniProt P35225 35-146, Biotinylated on amines (NHS-LC-biotin, 4:1) in ELISA, panning and competition assays. The letters are unchanged.).
T1 construct: R130Q counts from Met 1 of the signal peptide, R110Q on the mature chain; Bought from Peprotech; also called IL-13 R110Q; b-R130Q
Put plainly: Ra2 binding inhibition ELISA, mAb in crude HEK293 supernatant, IL-13 binding to IL-13Ra2. A general note: An ELISA detects its analyte on a solid surface through an enzyme-linked reagent.

Experiment [2] addresses T1, human IL-13 R130Q variant (R110Q of the …). Description: single-point (10 nM) phage Fab ELISA on biotinylated IL-13 R130Q.

B1: mAb with Lc 1A05 (Lc6 variant) and Hc2 (antibody, V domains shown)
VH: QVTLKESGPVLVKPTETLTLTCTVSGFSLSTYGMGVGWIRQPPGKALEWLAHIWWDDVKRYNPALKSRLTISKDTSKSQVVLTMTNMDPVDTATYYCARMGSDYDVWFDYWGQGTLVTVSS
VL: EIVLTQSPATLSLSPGERATLSCRASKSISKYLAWYQQKPGQAPRLLIYSGSTLQSGIPARFSGSGSGTDFTLTISSLEPEDFAVYYCQQQDGPYTFGQGTKLEIK
notes: human IgG1; del = residue deleted
Regarding B1, the “% Ra2 Binding Inhibition” value in experiment [1] stood at 82.7%.

B2: Phage # 62 Fab (IL-13-142 library) (Fab, V domains shown)
VH: B1 VH
VL: DIQMTQSPSTLSASVGDRVTITCRASKSISKYLAWYQQKPGKAPKLLIYSGSTLQSGVPSRFSGSGSGTEFTLTISSLQPDDFATYYCQQQDSPYTFGGGTKVEIK
notes: Fab on phage pIX; del = residue deleted
Consider B2, for which, in experiment [2], the “% of Lc16Hc7” value turned out to be 185%.

B3: Phage # 33 Fab (IL-13-142 library) (Fab, V domains shown)
VH: B1 VH
VL: DIQMTQSPSTLSASVGDRVTITCRASKSISKYLAWYQQKPGKAPKLLIYSGSTLQSGVPSRFSGSGSGTEFTLTISSLQPDDFATYYCQQHDWGPYTFGGGTKVEIK
notes: Fab on phage pIX
Turning to B3, in experiment [2], the “% of Lc16Hc7” value worked out at 124%.

B4: Phage # 48 Fab (IL-13-142 library) (Fab, V domains shown)
VH: B1 VH
VL: B3 VL
notes: Fab on phage pIX
As to B4, the “% of Lc16Hc7” value in experiment [2] amounted to 180%.

B5: Phage # 83 Fab (IL-13-142 library) (Fab, V domains shown)
VH: B1 VH
VL: B3 VL with W93M
notes: Fab on phage pIX
As for B5, the “% of Lc16Hc7” value in experiment [2] came out at 145%.

B6: mAb with Lc 1F03 (Lc6 variant, Table 8) and Hc2 (antibody, V domains shown)
VH: B1 VH
VL: EIVLTQSPATLSLSPGERATLSCRASKSISKYLAWYQQKPGQAPRLLIYSGSTLQSGIPARFSGSGSGTDFTLTISSLEPEDFAVYYCQQHDRDPYTFGQGTKLEIK
notes: human IgG1
Take B6: in experiment [1], the “% Ra2 Binding Inhibition” value is 57.6%.

B7: mAb with Lc 2E12 (Lc6 variant) and Hc2 (antibody, V domains shown)
VH: B1 VH
VL: B6 VL with R93W, D94S
notes: human IgG1
On to B7, for which the “% Ra2 Binding Inhibition” value in experiment [1] came to 83%.

B8: mAb with Lc 2C01 (Lc6 variant) and Hc2 (antibody, V domains shown)
VH: B1 VH
VL: B6 VL with D92S, R93I, D94G
notes: human IgG1
On to B8, for which the “% Ra2 Binding Inhibition” value in experiment [1] worked out at 67.7%.

B9: Phage # 94 Fab (IL-13-142 library) (Fab, V domains shown)
VH: B1 VH
VL: B3 VL with W93L
notes: Fab on phage pIX
For the molecule B9, the “% of Lc16Hc7” value in experiment [2] was found to be 272%.

B10: mAb with Lc 2A12 (Lc6 variant) and Hc2 (antibody, V domains shown)
VH: B1 VH
VL: B6 VL with R93P, D94G
notes: human IgG1
For the molecule B10, the “% Ra2 Binding Inhibition” value in experiment [1] was determined as 78.5%.

B11: Phage # 74 Fab (IL-13-142 library) (Fab, V domains shown)
VH: B1 VH
VL: B3 VL with H91Q, W93M
notes: Fab on phage pIX
As for B11, the “% of Lc16Hc7” value in experiment [2] worked out at 301%.

B12: mAb with Lc 2C09 (Lc6 variant) and Hc2 (antibody, V domains shown)
VH: B1 VH
VL: B6 VL with D92E, R93W, D94G
notes: human IgG1
Regarding B12, the “% Ra2 Binding Inhibition” value in experiment [1] came out at 87.6%.

B13: Phage # 88 Fab (IL-13-142 library) (Fab, V domains shown)
VH: B1 VH
VL: B3 VL with D92F
notes: Fab on phage pIX
For B13, the “% of Lc16Hc7” value in experiment [2] came to 193%.

B14: Phage # 75 Fab (IL-13-142 library) (Fab, V domains shown)
VH: B1 VH
VL: B3 VL with H91L, D92S, W93Y, G94E
notes: Fab on phage pIX
As for B14, the “% of Lc16Hc7” value in experiment [2] stood at 355%.

B15: Phage # 76 Fab (IL-13-142 library) (Fab, V domains shown)
VH: B1 VH
VL: B3 VL with D92L, W93D, G94L
notes: Fab on phage pIX
For B15, the “% of Lc16Hc7” value in experiment [2] came to 256%.

B16: mAb with Lc 1G02 (Lc6 variant, Table 8) and Hc2 (antibody, V domains shown)
VH: B1 VH
VL: B6 VL with D92S, R93W, D94A
notes: human IgG1
As for B16, the “% Ra2 Binding Inhibition” value in experiment [1] is 55.2%.

B17: Phage # 80 Fab (IL-13-142 library) (Fab, V domains shown)
VH: B1 VH
VL: B2 VL with S93Y
notes: as for B2
B17: the “% of Lc16Hc7” value in experiment [2] was 163%.

B18: Phage # 84 Fab (IL-13-142 library) (Fab, V domains shown)
VH: B1 VH
VL: B3 VL with D92L, W93I, G94E
notes: Fab on phage pIX
In the case of B18, in experiment [2], the “% of Lc16Hc7” value stood at 186%.

B19: Phage # 87 Fab (IL-13-142 library) (Fab, V domains shown)
VH: B1 VH
VL: B3 VL with D92S, W93L
notes: Fab on phage pIX
Turning to B19, the “% of Lc16Hc7” value in experiment [2] is 125%.

B20: mAb with Lc 1E03 (Lc6 variant) and Hc2 (antibody, V domains shown)
VH: B1 VH
VL: B6 VL with D92L, R93L, D94G
notes: human IgG1
Take B20: in experiment [1], the “% Ra2 Binding Inhibition” value worked out at 61.5%.

B21: Phage # 77 Fab (IL-13-142 library) (Fab, V domains shown)
VH: B1 VH
VL: B3 VL with W93F, G94A
notes: Fab on phage pIX
Consider B21, for which the “% of Lc16Hc7” value in experiment [2] turned out to be 195%.

B22: mAb with Lc 2E01 (Lc6 variant, Table 8) and Hc2 (antibody, V domains shown)
VH: B1 VH
VL: B6 VL with D92N, R93E, D94A
notes: human IgG1
For the molecule B22, the “% Ra2 Binding Inhibition” value in experiment [1] amounted to 53.9%.

B23: Phage # 93 Fab (IL-13-142 library) (Fab, V domains shown)
VH: B1 VH
VL: B3 VL with D92E, W93S
notes: Fab on phage pIX
Turning to B23, the “% of Lc16Hc7” value in experiment [2] was determined as 223%.

B24: mAb with Lc 2E04 (Lc6 variant) and Hc2 (antibody, V domains shown)
VH: B1 VH
VL: B6 VL with H91P, D92L, R93E, D94A
notes: human IgG1
As for B24, the “% Ra2 Binding Inhibition” value in experiment [1] worked out at 56.6%.

B25: Phage # 85 Fab (IL-13-142 library) (Fab, V domains shown)
VH: B1 VH
VL: B3 VL with D92M
notes: Fab on phage pIX
B25: in experiment [2], the “% of Lc16Hc7” value is 259%.

B26: Phage # 78 Fab (IL-13-142 library) (Fab, V domains shown)
VH: B1 VH
VL: B3 VL with D92L, W93M, G94A
notes: Fab on phage pIX
In the case of B26, the “% of Lc16Hc7” value in experiment [2] was determined as 154%.

B27: mAb with Lc 1H02 (Lc6 variant) and Hc2 (antibody, V domains shown)
VH: B1 VH
VL: B6 VL with H91Q, R93I, D94G
notes: human IgG1
For the molecule B27, in experiment [1], the “% Ra2 Binding Inhibition” value came to 81.7%.

B28: Phage # 81 Fab (IL-13-142 library) (Fab, V domains shown)
VH: B1 VH
VL: B3 VL with W93V
notes: Fab on phage pIX
As for B28, the “% of Lc16Hc7” value in experiment [2] was 231%.

B29: Phage # 86 Fab (IL-13-142 library) (Fab, V domains shown)
VH: B1 VH
VL: B3 VL with W93T
notes: Fab on phage pIX
Take B29: in experiment [2], the “% of Lc16Hc7” value came out at 334%.

B30: mAb with Lc 2C04 (Lc6 variant) and Hc2 (antibody, V domains shown)
VH: B1 VH
VL: B6 VL with D92N, R93F, D94G
notes: human IgG1
Consider B30, for which the “% Ra2 Binding Inhibition” value in experiment [1] came out at 61.9%.

B31: Phage # 68 Fab (IL-13-142 library) (Fab, V domains shown)
VH: B1 VH
VL: B2 VL with Q91H, S93F
notes: as for B2
Take B31: the “% of Lc16Hc7” value in experiment [2] is 398%.

B32: Phage # 82 Fab (IL-13-142 library) (Fab, V domains shown)
VH: B1 VH
VL: B3 VL with W93V, G94S
notes: Fab on phage pIX
For the molecule B32, the “% of Lc16Hc7” value in experiment [2] came to 342%.

B33: Phage # 72 Fab (IL-13-142 library) (Fab, V domains shown)
VH: B1 VH
VL: B3 VL with D92N, W93E
notes: Fab on phage pIX
As to B33, the “% of Lc16Hc7” value in experiment [2] is 114%.

B34: mAb with Lc 1C02 (Lc6 variant) and Hc2 (antibody, V domains shown)
VH: B1 VH
VL: B6 VL with D92V, R93W, D94G
notes: human IgG1
In the case of B34, the “% Ra2 Binding Inhibition” value in experiment [1] was determined as 68.4%.

B35: mAb with Lc 2A01 (Lc6 variant) and Hc2 (antibody, V domains shown)
VH: B1 VH
VL: B6 VL with D92S, R93H, D94G
notes: human IgG1
In the case of B35, the “% Ra2 Binding Inhibition” value in experiment [1] is 72.1%.

B36: mAb with Lc 2C05 (Lc6 variant) and Hc2 (antibody, V domains shown)
VH: B1 VH
VL: B6 VL with H91Q, R93L, D94G
notes: human IgG1
As for B36, in experiment [1], the “% Ra2 Binding Inhibition” value was determined as 83.8%.

B37: mAb with Lc 1B01 (Lc6 variant) and Hc2 (antibody, V domains shown)
VH: B1 VH
VL: B6 VL with D92S, R93W, D94G
notes: human IgG1
For B37, the “% Ra2 Binding Inhibition” value in experiment [1] came to 77.6%.

B38: mAb with Lc 2A03 (Lc6 variant) and Hc2 (antibody, V domains shown)
VH: B1 VH
VL: B6 VL with D92E, R93S, D94G
notes: human IgG1
B38: the “% Ra2 Binding Inhibition” value in experiment [1] is 75.8%.

B39: mAb with Lc 2G01 (Lc6 variant) and Hc2 (antibody, V domains shown)
VH: B1 VH
VL: B6 VL with D92F, R93W, D94G
notes: human IgG1
As to B39, in experiment [1], the “% Ra2 Binding Inhibition” value was determined as 81.2%.

B40: mAb with Lc 2E06 (Lc6 variant) and Hc2 (antibody, V domains shown)
VH: B1 VH
VL: B6 VL with D92S, R93S, D94G
notes: human IgG1
In the case of B40, the “% Ra2 Binding Inhibition” value in experiment [1] amounted to 50.2%.
